Reference: patent US20220119490A1 (Genentech, published 2022)
One block for each binder: values may come before it.

B3: CHL1 extracellular domain (receptor, human, UniProt O00533 25-1082, looked up)
chain: IEIPSSVQQVPTIIKQSKVQVAFPFDEYFQIECEAKGNPEPTFSWTKDGNPFYFTDHRIIPSNNSGTFRIPNEGHISHFQGKYRCFASNKLGIAMSEEIEFIVPSVPKFPKEKIDPLEVEEGDPIVLPCNPPKGLPPLHIYWMNIELEHIEQDERVYMSQKGDLYFANVEEKDSRNDYCCFAAFPRLRTIVQKMPMKLTVNSSNSIKQRKPKLLLPPTESGSESSITILKGEILLLECFAEGLPTPQVDWNKIGGDLPKGRETKENYGKTLKIENVSYQDKGNYRCTASNFLGTATHDFHVIVEEPPRWTKKPQSAVYSTGSNGILLCEAEGEPQPTIKWRVNGSPVDNHPFAGDVVFPREISFTNLQPNHTAVYQCEASNVHGTILANANIDVVDVRPLIQTKDGENYATVVGYSAFLHCEFFASPEAVVSWQKVEEVKPLEGRRYHIYENGTLQINRTTEEDAGSYSCWVENAIGKTAVTANLDIRNATKLRVSPKNPRIPKLHMLELHCESKCDSHLKHSLKLSWSKDGEAFEINGTEDGRIIIDGANLTISNVTLEDQGIYCCSAHTALDSAADITQVTVLDVPDPPENLHLSERQNRSVRLTWEAGADHNSNISEYIVEFEGNKEEPGRWEELTRVQGKKTTVILPLAPFVRYQFRVIAVNEVGRSQPSQPSDHHETPPAAPDRNPQNIRVQASQPKEMIIKWEPLKSMEQNGPGLEYRVTWKPQGAPVEWEEETVTNHTLRVMTPAVYAPYDVKVQAINQLGSGPDPQSVTLYSGEDYPDTAPVIHGVDVINSTLVKVTWSTVPKDRVHGRLKGYQINWWKTKSLLDGRTHPKEVNILRFSGQRNSGMVPSLDAFSEFHLTVLAYNSKGAGPESEPYIFQTPEGVPEQPTFLKVIKVDKDTATLSWGLPKKLNGNLTGYLLQYQIINDTYEIGELNDINITTPSKPSWHLSNLNATTKYKFYLRACTSQGCGKPITEESSTLGEGSKGIGKISGVNLTQKTHPIEVFEPGAEHIVRLMTKNWGDNDSIFQDVIETRGREYAGLYDDISTQGW
notes: extracellular domain; Soluble query (streptavidin tetramer) in cell assays; recombinant protein (R&D) in SPR; also called neural cell adhesion molecule L1-like protein; close homolog of L1

Key:
[1] = biological target: T1, PD-L2 extracellular domain (human, UniProt Q9BQ51 20-220); test: extracellular interaction screen, normalized intensity; labelled dot against the clone named on the axis; which is query and which prey is not given; colour of the predicted class lost
T1 construct: extracellular domain; ECD construct; also called PDCD1LG2; programmed cell death 1 ligand 2
T1 sequence (looked up): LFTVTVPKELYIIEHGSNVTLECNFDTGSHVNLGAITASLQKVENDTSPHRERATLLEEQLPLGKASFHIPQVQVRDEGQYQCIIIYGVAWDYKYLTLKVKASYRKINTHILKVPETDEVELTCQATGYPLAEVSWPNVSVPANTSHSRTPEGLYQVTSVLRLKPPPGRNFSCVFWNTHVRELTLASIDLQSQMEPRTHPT

[2] = biological target: B3; test: cell surface interaction assay: streptavidin-tetramerized biotinylated ECD on transfected cells, immunofluorescence
[3] = biological target: T2, L1CAM expressed on cells (human, UniProt P32004 20-1257); test: as above
T2 construct: whole, on cells; also called L1 cell adhesion molecule
T2 sequence (P32004 20-1257): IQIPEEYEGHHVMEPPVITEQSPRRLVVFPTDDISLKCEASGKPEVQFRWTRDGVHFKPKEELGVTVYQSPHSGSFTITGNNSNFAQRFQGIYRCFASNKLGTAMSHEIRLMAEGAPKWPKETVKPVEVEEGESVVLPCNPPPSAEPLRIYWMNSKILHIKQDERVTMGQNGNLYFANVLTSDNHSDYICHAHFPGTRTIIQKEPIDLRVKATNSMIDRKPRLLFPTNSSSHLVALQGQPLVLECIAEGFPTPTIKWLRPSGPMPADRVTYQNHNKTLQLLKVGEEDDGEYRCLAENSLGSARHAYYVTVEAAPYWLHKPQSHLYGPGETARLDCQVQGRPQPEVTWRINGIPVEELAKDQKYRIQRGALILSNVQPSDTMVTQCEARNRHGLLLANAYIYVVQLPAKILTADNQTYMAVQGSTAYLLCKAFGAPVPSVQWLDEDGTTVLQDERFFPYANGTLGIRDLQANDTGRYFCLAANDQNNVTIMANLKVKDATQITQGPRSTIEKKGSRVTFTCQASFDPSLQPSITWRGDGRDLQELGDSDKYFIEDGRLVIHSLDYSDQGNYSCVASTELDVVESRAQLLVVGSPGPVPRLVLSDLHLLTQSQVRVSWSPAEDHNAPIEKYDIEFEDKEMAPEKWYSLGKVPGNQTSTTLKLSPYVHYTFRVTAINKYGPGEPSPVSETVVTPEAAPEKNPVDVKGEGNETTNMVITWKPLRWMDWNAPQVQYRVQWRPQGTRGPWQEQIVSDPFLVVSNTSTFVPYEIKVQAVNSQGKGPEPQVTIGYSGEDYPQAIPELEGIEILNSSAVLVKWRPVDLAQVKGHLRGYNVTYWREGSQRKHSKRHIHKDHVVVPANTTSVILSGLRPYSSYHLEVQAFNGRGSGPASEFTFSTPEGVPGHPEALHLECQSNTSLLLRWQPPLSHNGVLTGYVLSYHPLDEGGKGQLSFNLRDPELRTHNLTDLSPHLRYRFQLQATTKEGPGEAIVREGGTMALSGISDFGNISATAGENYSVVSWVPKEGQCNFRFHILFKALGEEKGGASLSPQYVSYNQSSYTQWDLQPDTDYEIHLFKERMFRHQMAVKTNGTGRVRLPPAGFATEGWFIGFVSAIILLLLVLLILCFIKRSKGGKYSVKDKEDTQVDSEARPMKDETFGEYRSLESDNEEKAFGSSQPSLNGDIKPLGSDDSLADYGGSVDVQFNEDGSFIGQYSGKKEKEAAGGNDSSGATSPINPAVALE
Text: FIG. 3H is a schematic showing the design of the cell surface interaction assay.

[4] = biological target: T3, AXL extracellular domain (human, UniProt P30530 26-451); test: biolayer interferometry, biotinylated AXL ectodomain on streptavidin sensors, IL1RL1 ectodomain in solution
T3 construct: extracellular domain; Biotinylated ectodomain on streptavidin sensors in BLI; streptavidin tetramer in the cell assay; also called UFO; tyrosine-protein kinase receptor AXL
T3 sequence (looked up): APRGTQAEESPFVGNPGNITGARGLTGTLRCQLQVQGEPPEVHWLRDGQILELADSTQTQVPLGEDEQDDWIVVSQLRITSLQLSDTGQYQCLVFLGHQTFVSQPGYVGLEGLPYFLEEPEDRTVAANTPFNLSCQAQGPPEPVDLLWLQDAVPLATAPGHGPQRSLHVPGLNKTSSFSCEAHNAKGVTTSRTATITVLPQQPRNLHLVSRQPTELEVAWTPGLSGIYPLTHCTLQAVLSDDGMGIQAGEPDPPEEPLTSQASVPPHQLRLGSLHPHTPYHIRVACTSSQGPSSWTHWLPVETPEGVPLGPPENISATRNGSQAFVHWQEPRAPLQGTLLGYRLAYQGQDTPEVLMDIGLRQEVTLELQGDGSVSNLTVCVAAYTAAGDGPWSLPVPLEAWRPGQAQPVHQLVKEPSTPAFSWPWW
Description: Interactions between AXL and the binding partners IL1RL1 and Gas6 were assayed by biolayer interferometry using an Octet Red system, as previously described (Husain et al., Mol Cell Proteomics, 18: 2310-2323, 2019). […] Data were analyzed using Forte Pall (Port Washington, N.Y.) software 9.0.

binding result [1]: binds
B1: TNFRS11A_DNA742118 (receptor, human, UniProt Q9Y6Q6 30-212, looked up)
extracellular domain construct of the screen: IAPPCTSEKHYEHLGRCCNKCEPGKYMSSKCTTTSDSVCLPCGPDEYLDSWNEEDKCLLHKVCDTGKALVAVVAGNSTTPRRCACTAGYHWSQDCECCRRNTECAPGLGAQHPLQLNKDTVCKPCLAGYFSDAFSSTDKCRPWTNCTFLGKRVEHHGTEKSDAVCSSSLPARKPPNEPHVYLP
notes: extracellular domain; also called TNFRSF11A

binding result [2]: binds
B2: CNTN5 expressed on cells (receptor, human, UniProt O94779 19-1072, looked up)
chain: EYSKSLPGLSTSYAALLRIKKSSSSSLFGSKTRPRYSSPSLGTLSASSPSWLGAAQNYYSPINLYHSSDAFKQDESVDYGPVFVQEPDDIIFPTDSDEKKVALNCEVRGNPVPSYRWLRNGTEIDLESDYRYSLIDGTFIISNPSEAKDSGHYQCLATNTVGSILSREATLQFAYLGNFSGRTRSAVSVREGQGVVLMCSPPPHSPEIIYSWVFNEFPSFVAEDSRRFISQETGNLYISKVQTSDVGSYICLVKNTVTNARVLSPPTPLTLRNDGVMGEYEPKIEVHFPFTVTAAKGTTVKMECFALGNPVPTITWMKVNGYIPSKARLRKSQAVLEIPNVQLDDAGIYECRAENSRGKNSFRGQLQVYTYPHWVEKLNDTQLDSGSPLRWECKATGKPRPTYRWLKNGVPLSPQSRVEMVNGVLMIHNVNQSDAGMYQCLAENKYGAIYASAELKILASAPTFALNQLKKTIIVTKDQEVVIECKPQGSPKPTISWKKGDRAVRENKRIAILPDGSLRILNASKSDEGKYVCRGENVFGSAEIIASLSVKEPTRIELTPKRTELTVGESIVLNCKAIHDASLDVTFYWTLKGQPIDFEEEGGHFESIRAQASSADLMIRNILLMHAGRYGCRVQTTADSVSDEAELLVRGPPGPPGIVIVEEITESTATLSWSPAADNHSPISSYNLQARSPFSLGWQTVKTVPEIITGDMESAMAVDLNPWVEYEFRVVATNPIGTGDPSTPSRMIRTNEAVPKTAPTNVSGRSGRRHELVIAWEPVSEEFQNGEGFGYIVAFRPNGTRGWKEKMVTSSEASKFIYRDESVPPLTPFEVKVGVYNNKGDGPFSQIVVICSAEGEPSAAPTDVKATSVSVSEILVAWKHIKESLGRPQGFEVGYWKDMEQEDTAETVKTRGNESFVILTGLEGNTLYHFTVRAYNGAGYGPPSSEVSATTKKSPPSQAPSNLRWEQQGSQVSLGWEPVIPLANESEVVGYKVFYRQEGHSNSQVIETQKLQAVVPLPDAGVYIIEVRAYSEGGDGTASSQIRVPSYSGGKITS
notes: whole, on cells; also called contactin 5

Binder: B3
binding result [3]: binds

binding result [4]: binds
B4: IL1RL1 extracellular domain (receptor, human, UniProt Q01638 19-328, looked up)
chain: KFSKQSWGLENEALIVRCPRQGKPSYTVDWYYSQTNKSIPTQERNRVFASGQLLKFLPAAVADSGIYTCIVRSPTFNRTGYANVTIYKKQSDCNVPDYLMYSTVSGSEKNSKIYCPTIDLYNWTAPLEWFKNCQALQGSRYRAHKSFLVIDNVMTEDAGDYTCKFIHNENGANYSVTATRSFTVKDEQGFSLFPVIGAPAQNEIKEVEIGKNANLTCSACFGKGTQFLAAVLWQLNGTKITDFGEPRIQQEEGQNQSFSNGLACLDMVLRIADVKEEDLLLQYDCLALNLHGLRRHTVRLSRKNPIDHHS
notes: extracellular domain; Soluble analyte in BLI
